Experimental findings from publication doi:10.1101/2020.01.02.892901 are described below.

This assay has as its target MET pY1313 phosphopeptide (human). The assay is described as follows: fluorescence polarisation. On the technique in general: Polarisation of emitted light reports the rotation of a fluorescent probe.

For orientation: Kd means the constant that tells how readily two partners part at equilibrium.

“And” between values parts separate entries of the source, which are not always exact repeats. Equal entries are not always repeated.

Consider “FGR SH2 domain (from UniProt P09769 144-241) (domain or fragment)”, for which the Kd was 3 µM and 12 µM.
